The supplement of paper PMC10126150
± gives the standard deviation of the averaged measurements.

Test system: ATP
Experiment: switch fluorescence ratio, 500 uM ATP over buffer (Cy3 cluster intensity, sum of 5 cycles each) (fold (ratio)); higher = stronger signal-on switching upon ATP binding; sequences stand for … in TCGTCGGCAGCGTCAGATGTGTATAAGAGACAGTTTTTTTTTTTTTTTTTTTTTTTTT…TC
Conditions: aptamer strand: ATP DNA aptamer (quencher-CACCTGGGGGAGTATTGCGGAGGAAGG + anchor), 100 nM annealed; ATP concentration: 500 uM
Procedure, shortened: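 Switching-strand clusters labelled with Cy3 on a modified Illumina MiSeq flow-cell were annealed to 100 nM quencher-labelled ATP aptamer, imaged in selection buffer, and re-imaged after 15 min with 500 uM ATP at 22 °C. This was done over five cycles with NaOH stripping and re-annealing in between. The fluorescence ratio is summed target-cycle over summed buffer-cycle Cy3 intensity per cluster, averaged per switch-domain sequence, excluding clusters outside 100-1000 RFU.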
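Note: ATP exposure 15 min at 22 °C before imaging.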

| Sequence | switch fluorescence ratio |
| --- | --- |
| AGTGTAGGGG | 1.02 ± 0.028 |
| AGTGTATACT | 0.9886 ± 0.0021 |
| AGTGTGAGCT | 1 ± 0.037 |
| AGTGTGGGCT | 1.04 ± 0.021 |
| AGTGTGGGGC | 1.03 ± 0.0097 |
| AGTGTGGTTA | 1.005 ± 0.01 |
| AGTGTGTGGC | 1.01 ± 0.016 |
| AGTGTTAGGA | 1.02 ± 0.011 |
| AGTGTTGTAT | 1.05 ± 0.044 |
| AGTGTTTGTT | 0.9995 ± 0.0052 |
| AGTTAAAAAT | 0.996 ± 0.022 |
| AGTTAAAATA | 1 ± 0.021 |
| AGTTAAATTT | 0.994 ± 0.035 |
| AGTTAATAAA | 1 ± 0.0019 |
| AGTTACCCGA | 1.04 ± 0.011 |
| AGTTACGGAC | 1.36 ± 0.017 |
| AGTTACGGGA | 1.1 ± 0.03 |
| AGTTAGACAG | 0.9737 ± 0.0062 |
| AGTTAGCAAT | 2.45 ± 0.11 |
| AGTTAGGGCG | 1.04 ± 0.058 |
| AGTTAGGTGT | 1.04 ± 0.044 |
| AGTTAGTAAG | 1.01 ± 0.04 |
| AGTTAGTTAG | 0.987 ± 0.011 |
| AGTTATGTAG | 1.01 ± 0.052 |
| AGTTATGTTT | 0.956 ± 0.051 |

| Sequence | switch fluorescence ratio |
| --- | --- |
| AGTTCAACCT | 1.65 ± 0.19 |
| AGTTCAGAAC | 0.9899 ± 0.0075 |
| AGTTCGGGCA | 0.998 ± 0.021 |
| AGTTCTAGGA | 0.953 ± 0.03 |
| AGTTCTCAGT | 0.997 ± 0.018 |
| AGTTCTGGTT | 0.965 ± 0.011 |
| AGTTCTGTCG | 1.01 ± 0.09 |
| AGTTCTTGGC | 1.02 ± 0.0042 |
| AGTTGCACGT | 0.954 ± 0.041 |
| AGTTGCGTAG | 0.989 ± 0.021 |
| AGTTGCGTTA | 0.963 ± 0.025 |
| AGTTGGCGGG | 1.018 ± 0.005 |
| AGTTGGCTTA | 1.01 ± 0.013 |
| AGTTGGGCAT | 0.995 ± 0.017 |
| AGTTGGGGGA | 0.984 ± 0.014 |
| AGTTGGTCTC | 1.13 ± 0.12 |
| AGTTGTATT | 0.967 ± 0.022 |
| AGTTGTCTCT | 0.979 ± 0.035 |
| AGTTGTGAGT | 0.9726 ± 0.0077 |
| AGTTGTTATT | 1.027 ± 0.0088 |
| AGTTGTTTGT | 0.966 ± 0.016 |
| AGTTGTTTTT | 0.983 ± 0.025 |
| AGTTTAACTA | 1 ± 0.025 |
| AGTTTAAGGA | 1.01 ± 0.025 |
| AGTTTACGAA | 1.01 ± 0.0069 |

| Sequence | switch fluorescence ratio |
| --- | --- |
| AGTTTACGTG | 1 ± 0.0033 |
| AGTTTCGCGG | 0.9632 ± 0.0037 |
| AGTTTCGCTA | 0.992 ± 0.024 |
| AGTTTCGGGC | 0.974 ± 0.033 |
| AGTTTGAGGA | 1.01 ± 0.014 |
| AGTTTGATAT | 0.999 ± 0.017 |
| AGTTTGCCAG | 0.96403 ± 0.00025 |
| AGTTTGGGCA | 0.975 ± 0.029 |
| AGTTTGGGGC | 0.984 ± 0.045 |
| AGTTTGGGGG | 0.966 ± 0.029 |
| AGTTTGGTGT | 0.997 ± 0.026 |
| AGTTTGTGGC | 0.965 ± 0.012 |
| AGTTTGTTGC | 1 ± 0.012 |
| AGTTTTAACG | 0.974 ± 0.073 |
| AGTTTTATCC | 1.006 ± 0.0052 |
| AGTTTTATTT | 0.968 ± 0.032 |
| AGTTTTCCTG | 0.985 ± 0.015 |
| AGTTTTGGGG | 0.981 ± 0.043 |
| AGTTTTTAAA | 1.027 ± 0.0039 |
| AGTTTTTATG | 1.026 ± 0.0028 |
| AGTTTTTCCA | 1.02 ± 0.031 |
| AGTTTTTCGT | 1.01 ± 0.019 |
| AGTTTTTGAG | 1 ± 0.013 |
| AGTTTTTGCT | 0.9736 ± 0.0065 |
| AGTTTTTGTT | 0.987 ± 0.024 |

| Sequence | switch fluorescence ratio |
| --- | --- |
| AGTTTTTTCG | 0.973 ± 0.023 |
| AGTTTTTTGG | 1.01 ± 0.033 |
| AGTTTTTTTT | 0.997 ± 0.028 |
| ATAAAAAAAG | 1.05 ± 0.021 |
| ATAAAAAGGA | 1.0058 ± 0.00029 |
| ATAAAAGAAG | 1.01 ± 0.041 |
| ATAAACCTTG | 1.16 ± 0.031 |
| ATAAACGTTA | 1.1 ± 0.018 |
| ATAAAGAAGC | 1.02 ± 0.022 |
| ATAAAGCGGC | 0.994 ± 0.047 |
| ATAAAGGTCT | 0.984 ± 0.0053 |
| ATAAATGACG | 1.02 ± 0.037 |
| ATAAATGCGT | 1.002 ± 0.0031 |
| ATAACAAGAC | 1.32 ± 0.067 |
| ATAACAGGAT | 0.986 ± 0.033 |
| ATAACGGGGA | 0.999 ± 0.015 |
| ATAAGAATTG | 1.01 ± 0.06 |
| ATAAGACTGT | 1.03 ± 0.018 |
| ATAAGAGGAG | 0.995 ± 0.022 |
| ATAAGCGGAG | 1 ± 0.013 |
| ATAAGCGTGG | 0.995 ± 0.082 |
| ATAAGGAGGT | 1.012 ± 0.0081 |
| ATAAGGAGTT | 1.01 ± 0.045 |
| ATAAGGCCTG | 1.03 ± 0.075 |
| ATAAGGGGGC | 0.989 ± 0.041 |

| Sequence | switch fluorescence ratio |
| --- | --- |
| ATAAGGGGGT | 0.973 ± 0.016 |
| ATAAGGGTCC | 1.04 ± 0.066 |
| ATAAGGTGAG | 0.998 ± 0.035 |
| ATAAGTCTGT | 1.008 ± 0.0073 |
| ATAAGTGGA | 0.997 ± 0.062 |
| ATAAGTGGGA | 0.986 ± 0.076 |
| ATAATAGGCG | 0.985 ± 0.0028 |
| ATAATCACCT | 1.23 ± 0.019 |
| ATAATCCCGA | 1.02 ± 0.015 |
| ATAATCGAGT | 0.9837 ± 0.0076 |
| ATAATGAGGT | 1.01 ± 0.042 |
| ATAATGGCTT | 0.988 ± 0.025 |
| ATAATGGGCA | 0.983 ± 0.064 |
| ATAATGGTC | 1.003 ± 0.008 |
| ATAATGTATA | 0.9835 ± 0.0028 |
| ATAATGTGAA | 1.03 ± 0.017 |
| ATAATGTTGT | 0.991 ± 0.031 |
| ATAATTATCG | 0.972 ± 0.046 |
| ATAATTGAGC | 1.04 ± 0.027 |
| ATAATTGGG | 0.978 ± 0.097 |
| ATAATTTAAT | 0.9986 ± 0.0074 |
| ATAATTTGCC | 1.01 ± 0.05 |
| ATAATTTGGG | 0.99 ± 0.017 |
| ATACAACCTG | 1.106 ± 0.0065 |
| ATACAAGGCA | 0.956 ± 0.053 |

| Sequence | switch fluorescence ratio |
| --- | --- |
| ATACACGTTA | 1.23 ± 0.013 |
| ATACCAGGCG | 1.24 ± 0.069 |
| ATACCCTGGG | 1.03 ± 0.035 |
| ATACCGGTTG | 1.02 ± 0.015 |
| ATACCGTGAG | 1.05 ± 0.011 |
| ATACGAAGGC | 0.985 ± 0.093 |
| ATACGACGTG | 1.004 ± 0.0083 |
| ATACGAGCAG | 1.067 ± 0.006 |
| ATACGAGTTA | 1.02 ± 0.021 |
| ATACGATTTG | 0.971 ± 0.038 |
| ATACGGGAAT | 1.05 ± 0.022 |
| ATACGTTGAA | 1 ± 0.045 |
| ATACTGTCGC | 1.0874 ± 0.0002 |
| ATACTTAGTG | 0.986 ± 0.019 |
| ATACTTGATT | 0.994 ± 0.025 |
| ATACTTTGGT | 0.9944 ± 0.0018 |
| ATAGAAATTG | 1.01 ± 0.035 |
| ATAGAAGGGT | 1.01 ± 0.026 |
| ATAGAATCAA | 1.02 ± 0.022 |
| ATAGACACGC | 1.034 ± 0.0078 |
| ATAGACAGAC | 1.136 ± 0.0095 |
| ATAGACGAGG | 0.9809 ± 0.0011 |
| ATAGAGTTCT | 0.997 ± 0.041 |
| ATAGATCAGC | 0.995 ± 0.025 |
| ATAGATGGCC | 0.95 ± 0.056 |

| Sequence | switch fluorescence ratio |
| --- | --- |
| ATAGCCCGGG | 0.986 ± 0.011 |
| ATAGCCGTCG | 1.07 ± 0.12 |
| ATAGCTACGC | 1.035 ± 0.003 |
| ATAGCTCTCG | 1.01 ± 0.037 |
| ATAGGAAAAA | 0.963 ± 0.059 |
| ATAGGAGTTG | 1.033 ± 0.0089 |
| ATAGGCCAG | 0.9898 ± 0.0067 |
| ATAGGCGGAG | 0.965 ± 0.02 |
| ATAGGCGGGT | 1.004 ± 0.005 |
| ATAGGCTAAA | 1.04 ± 0.044 |
| ATAGGCTAGT | 1.02 ± 0.025 |
| ATAGGCTGTT | 0.986 ± 0.038 |
| ATAGGGACAC | 1.07 ± 0.033 |
| ATAGGGATAG | 1.01 ± 0.047 |
| ATAGGGGAGT | 0.993 ± 0.03 |
| ATAGGGGGGC | 1.01 ± 0.074 |
| ATAGGGGTCG | 1.01 ± 0.076 |
| ATAGGGGTGC | 1.02 ± 0.042 |
| ATAGGGTAAG | 0.965 ± 0.018 |
| ATAGGGTCCG | 0.977 ± 0.024 |
| ATAGGTATCT | 0.988 ± 0.019 |
| ATAGGTATGA | 0.988 ± 0.01 |
| ATAGGTCCGG | 0.9957 ± 0.0041 |
| ATAGGTCTCA | 1 ± 0.013 |
| ATAGGTCTTA | 0.983 ± 0.04 |

| Sequence | switch fluorescence ratio |
| --- | --- |
| ATAGGTGAGA | 1.06 ± 0.02 |
| ATAGGTTTTT | 0.973 ± 0.024 |
| ATAGTAAAGG | 0.994 ± 0.031 |
| ATAGTACTTT | 1.05 ± 0.044 |
| ATAGTAGCTA | 0.9764 ± 0.0016 |
| ATAGTATGTT | 0.99 ± 0.051 |
| ATAGTATTAT | 0.968 ± 0.015 |
| ATAGTCAAGG | 0.982 ± 0.028 |
| ATAGTCAGAT | 0.969 ± 0.014 |
| ATAGTCCCAC | 0.9901 ± 0.009 |
| ATAGTGACCG | 1.01 ± 0.013 |
| ATAGTGAGCG | 1.01 ± 0.025 |
| ATAGTGAGGT | 0.986 ± 0.038 |
| ATAGTGCTGT | 0.97717 ± 0.00097 |
| ATAGTGGGGA | 1.04 ± 0.026 |
| ATAGTTGGGA | 1.018 ± 0.0011 |
| ATAGTTGGTT | 1.01 ± 0.03 |
| ATAGTTTGAT | 1.01 ± 0.022 |
| ATAGTTTTTG | 0.993 ± 0.012 |
| ATAGTTTTTT | 0.977 ± 0.017 |
| ATATAAAGGG | 0.996 ± 0.025 |
| ATATACGGCA | 1.19 ± 0.08 |
| ATATAGGTA | 1.036 ± 0.0097 |
| ATATAGGTTT | 1.01 ± 0.0081 |
| ATATAGTTCG | 0.967 ± 0.047 |
